Each block holds one binder with its values, some of them ahead of it.
What was measured:
[1] = biological target: T1, human MASP-1 (construct not stated) (human, UniProt P48740 20-699, limits assumed); assay: DTLacO screen
T1 sequence: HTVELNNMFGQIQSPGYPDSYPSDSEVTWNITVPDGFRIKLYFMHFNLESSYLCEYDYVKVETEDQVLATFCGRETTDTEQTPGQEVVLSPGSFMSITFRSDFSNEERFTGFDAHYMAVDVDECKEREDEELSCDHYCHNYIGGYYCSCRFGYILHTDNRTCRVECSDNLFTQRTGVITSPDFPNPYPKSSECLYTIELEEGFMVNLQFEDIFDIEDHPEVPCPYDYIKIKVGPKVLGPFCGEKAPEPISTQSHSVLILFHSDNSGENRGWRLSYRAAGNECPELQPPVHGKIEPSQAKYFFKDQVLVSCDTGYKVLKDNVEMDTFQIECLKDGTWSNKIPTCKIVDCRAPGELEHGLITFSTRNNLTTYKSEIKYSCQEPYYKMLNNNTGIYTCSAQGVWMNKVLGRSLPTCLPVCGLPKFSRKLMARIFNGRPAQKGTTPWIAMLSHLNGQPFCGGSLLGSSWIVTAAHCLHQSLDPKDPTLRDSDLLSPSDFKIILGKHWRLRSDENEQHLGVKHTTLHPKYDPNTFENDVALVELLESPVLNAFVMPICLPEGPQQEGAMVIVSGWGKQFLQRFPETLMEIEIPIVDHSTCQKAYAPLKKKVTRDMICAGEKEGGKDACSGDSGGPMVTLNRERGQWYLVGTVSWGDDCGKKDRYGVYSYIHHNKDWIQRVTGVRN

[2] = biological target: T2, human MASP-3 CCP1-CCP2-SP fragment (human); assay: cell-based or functional assay
T2 chain: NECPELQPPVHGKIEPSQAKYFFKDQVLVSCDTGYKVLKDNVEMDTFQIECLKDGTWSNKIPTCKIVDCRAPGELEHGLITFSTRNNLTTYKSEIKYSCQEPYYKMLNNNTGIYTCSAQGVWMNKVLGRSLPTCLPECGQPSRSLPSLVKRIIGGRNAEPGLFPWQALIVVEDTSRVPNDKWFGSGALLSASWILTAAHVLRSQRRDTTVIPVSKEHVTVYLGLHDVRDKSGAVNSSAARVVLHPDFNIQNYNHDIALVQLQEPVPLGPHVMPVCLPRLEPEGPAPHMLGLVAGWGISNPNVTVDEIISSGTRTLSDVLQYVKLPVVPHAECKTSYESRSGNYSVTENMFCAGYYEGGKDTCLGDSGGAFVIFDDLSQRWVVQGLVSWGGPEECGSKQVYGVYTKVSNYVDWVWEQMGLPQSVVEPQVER

[3] = biological target: T3, human MASP-3 (construct not stated) (human); assay: cell-based or functional assay
T3 chain: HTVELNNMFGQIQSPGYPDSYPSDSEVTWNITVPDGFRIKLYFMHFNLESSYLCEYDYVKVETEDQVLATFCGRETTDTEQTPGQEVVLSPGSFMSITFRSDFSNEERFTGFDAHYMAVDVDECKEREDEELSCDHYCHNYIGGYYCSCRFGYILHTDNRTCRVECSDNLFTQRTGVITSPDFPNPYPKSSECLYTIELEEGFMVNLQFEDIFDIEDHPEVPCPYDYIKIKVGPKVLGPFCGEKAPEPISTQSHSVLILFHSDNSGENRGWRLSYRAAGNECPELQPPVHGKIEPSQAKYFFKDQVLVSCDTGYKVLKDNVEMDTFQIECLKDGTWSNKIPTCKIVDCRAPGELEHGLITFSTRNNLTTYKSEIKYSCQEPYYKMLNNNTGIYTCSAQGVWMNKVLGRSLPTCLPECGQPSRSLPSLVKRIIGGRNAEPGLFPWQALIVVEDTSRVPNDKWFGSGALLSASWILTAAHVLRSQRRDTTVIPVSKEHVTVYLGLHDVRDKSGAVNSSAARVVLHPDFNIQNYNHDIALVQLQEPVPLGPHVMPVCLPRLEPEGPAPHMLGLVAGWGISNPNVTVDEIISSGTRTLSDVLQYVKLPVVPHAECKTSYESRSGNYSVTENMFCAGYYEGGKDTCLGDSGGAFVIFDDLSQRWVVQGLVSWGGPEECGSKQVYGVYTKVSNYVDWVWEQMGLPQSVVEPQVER

[4] = biological target: T2, human MASP-3 CCP1-CCP2-SP fragment; assay: sandwich ELISA, MASP-3 CCP1-CCP2-SP captured by αM3-259
Method in brief: (§1)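 Candidate MASP-3 antibodies incubated 1 h at room temperature on the prepared plate, then detected with mouse anti-human kappa-HRP for 1 h. Developed 5 min with TMB; absorbance read at 450 nm.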

[5] = biological target: T4, recombinant human MASP-1A (S646A, CCP1-CCP2-SP fragment) (human, UniProt P48740 298-699, limits assumed); assay: ELISA: recombinant MASP-1A (S646A, CCP1-CCP2-SP) coated directly on the plate, A450
T4 chain: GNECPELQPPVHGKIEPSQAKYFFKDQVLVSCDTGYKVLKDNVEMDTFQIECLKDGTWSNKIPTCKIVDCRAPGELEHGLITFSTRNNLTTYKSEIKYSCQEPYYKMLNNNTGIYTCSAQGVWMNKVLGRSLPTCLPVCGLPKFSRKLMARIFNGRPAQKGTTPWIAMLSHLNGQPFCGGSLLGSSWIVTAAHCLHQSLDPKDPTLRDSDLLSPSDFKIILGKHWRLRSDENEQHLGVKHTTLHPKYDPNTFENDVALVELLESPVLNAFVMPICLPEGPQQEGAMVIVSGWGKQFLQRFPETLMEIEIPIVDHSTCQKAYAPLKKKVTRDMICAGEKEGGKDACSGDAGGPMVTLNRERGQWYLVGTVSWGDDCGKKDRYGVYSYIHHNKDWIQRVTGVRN
Method in brief: as §1

[6] = biological target: T5, recombinant full-length mouse MASP-3 (mouse); assay: sandwich ELISA, full-length mouse MASP-3 captured by αM3-259
T5 construct: Entry is with leader; also called mouse full length MASP-3
T5 chain: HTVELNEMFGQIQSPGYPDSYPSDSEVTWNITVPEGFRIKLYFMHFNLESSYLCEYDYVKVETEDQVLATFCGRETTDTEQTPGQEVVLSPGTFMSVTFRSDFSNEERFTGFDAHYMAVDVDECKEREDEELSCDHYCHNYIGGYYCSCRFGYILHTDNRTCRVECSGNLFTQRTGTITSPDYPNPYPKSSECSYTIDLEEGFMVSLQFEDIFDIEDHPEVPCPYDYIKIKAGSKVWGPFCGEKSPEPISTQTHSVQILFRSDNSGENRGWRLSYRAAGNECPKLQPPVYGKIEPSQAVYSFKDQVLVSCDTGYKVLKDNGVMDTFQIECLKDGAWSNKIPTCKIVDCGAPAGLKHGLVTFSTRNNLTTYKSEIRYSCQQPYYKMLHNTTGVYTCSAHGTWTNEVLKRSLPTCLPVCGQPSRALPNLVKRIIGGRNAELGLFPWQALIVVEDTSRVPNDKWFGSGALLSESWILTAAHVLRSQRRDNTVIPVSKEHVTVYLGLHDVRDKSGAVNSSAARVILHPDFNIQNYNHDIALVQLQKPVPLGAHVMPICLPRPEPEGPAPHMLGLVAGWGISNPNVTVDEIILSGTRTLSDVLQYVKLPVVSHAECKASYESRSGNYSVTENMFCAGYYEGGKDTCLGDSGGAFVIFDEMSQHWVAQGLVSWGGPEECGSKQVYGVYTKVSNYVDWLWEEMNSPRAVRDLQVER
Method in brief: as §1

[7] = biological target: T3, human MASP-3 (construct not stated); assay: cell-based or functional assay
[8] = biological target: T3, human MASP-3 (construct not stated); assay: not described at this place
[9] = biological target: T2, human MASP-3 CCP1-CCP2-SP fragment; assay: sandwich ELISA: human MASP-3 CCP1-CCP2-SP captured on aM3-259, mAb detected with anti-human kappa-HRP, A450
Experimental: The plate was then washed (PBS-T, 0.05%) and the candidate MASP-3 antibodies were added followed by incubation for one hour at room temperature. The plate was washed (PBS-T, 0.05%) and a detection antibody was added (mouse anti-human kappa-HRP, SouthernBiotech #9230-05) for one hour at room temperature. After another wash (PBS-T, 0.05%) the plate was developed (5 minutes) with OPT EIA TMB (BD Biosciences #555214). Absorbance reading at A450 was measured using the Spectramax M5e plate reader.

[10] = biological target: T6, recombinant human MASP-2 (CCP1-CCP2-SP fragment) (human, UniProt O00187 298-686, limits assumed); assay: ELISA: recombinant MASP-2 (CCP1-CCP2-SP) coated directly on the plate, A450
T6 construct: domain: CCP1-CCP2-SP fragment
Method in brief: as §1

[11] = biological target: T3, human MASP-3 (construct not stated); assay: ELISA, monovalent Fab
[12] = biological target: T3, human MASP-3 (construct not stated); assay: cross-species binding experiments
[13] = biological target: T5, recombinant full-length mouse MASP-3; assay: ELISA, full-length mouse MASP-3 held by a capture antibody, monovalent Fab, anti-kappa-HRP
Text: (§2) Binding affinity determinations were made by coating 96-well plates with an anti-MASP-3 capture antibody that binds the protein from multiple species.

[14] = biological target: T7, recombinant full-length human MASP-3 (human); assay: ELISA, full-length human MASP-3 held by a capture antibody, monovalent Fab, anti-kappa-HRP
T7 construct: Recombinant, full-length; also called full-length human MASP-3 protein; rMASP-3 (full-length)
T7 chain: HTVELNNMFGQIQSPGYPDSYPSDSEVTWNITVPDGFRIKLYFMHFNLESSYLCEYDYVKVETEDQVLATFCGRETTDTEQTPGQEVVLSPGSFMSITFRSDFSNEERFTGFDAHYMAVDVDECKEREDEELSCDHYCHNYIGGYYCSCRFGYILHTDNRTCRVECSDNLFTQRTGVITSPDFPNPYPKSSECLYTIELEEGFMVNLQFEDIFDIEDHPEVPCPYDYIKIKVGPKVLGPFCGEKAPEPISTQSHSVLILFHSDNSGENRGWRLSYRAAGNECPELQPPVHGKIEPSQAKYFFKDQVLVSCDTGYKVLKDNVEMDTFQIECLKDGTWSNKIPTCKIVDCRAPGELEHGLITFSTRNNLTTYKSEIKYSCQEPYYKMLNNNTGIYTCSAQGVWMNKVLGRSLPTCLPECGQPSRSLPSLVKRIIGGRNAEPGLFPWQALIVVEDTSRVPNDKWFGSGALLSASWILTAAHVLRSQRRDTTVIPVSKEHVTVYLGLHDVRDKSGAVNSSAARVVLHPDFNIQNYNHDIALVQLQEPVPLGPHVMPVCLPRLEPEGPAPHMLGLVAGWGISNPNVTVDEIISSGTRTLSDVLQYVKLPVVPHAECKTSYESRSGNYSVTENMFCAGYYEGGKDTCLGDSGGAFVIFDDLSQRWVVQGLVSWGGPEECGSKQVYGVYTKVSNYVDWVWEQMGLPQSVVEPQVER
Text: as §2

T6 sequence (O00187 298-686 limits assumed): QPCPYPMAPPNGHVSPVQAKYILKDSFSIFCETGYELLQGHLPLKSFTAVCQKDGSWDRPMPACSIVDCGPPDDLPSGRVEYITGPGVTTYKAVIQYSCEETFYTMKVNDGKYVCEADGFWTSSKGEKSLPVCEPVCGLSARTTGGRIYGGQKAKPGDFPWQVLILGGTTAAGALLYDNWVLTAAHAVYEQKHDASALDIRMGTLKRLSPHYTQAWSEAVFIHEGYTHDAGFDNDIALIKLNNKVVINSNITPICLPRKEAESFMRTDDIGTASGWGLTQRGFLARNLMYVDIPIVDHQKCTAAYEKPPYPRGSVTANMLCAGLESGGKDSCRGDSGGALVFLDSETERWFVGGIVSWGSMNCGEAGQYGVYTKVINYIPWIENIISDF

B3: MASP-3 mAb 13B1 (mouse-human chimeric IgG4) (antibody, V domains shown)
VH: QVQLKQSGAELMKPGASVKLSCKATGYTFTGKWIEWVKQRPGHGLEWIGEILPGTGSTNYNEKFKGKATFTADSSSNTAYMQLSSLTTEDSAMYYCLRSEDVWGTGTTVTVSS
VL: DIVMTQSPSSLAVSAGEKVTMSCKSSQSLLNSRTRKNYLAWYQQKPGQSPKLLIYWASTRESGVPDRFTGSGSGTDFTLTISSVQAEDLAVYYCKQSYNIPTFGGGTKLEIKR
notes: also called mAb M3-1; M3-1
inhibition of MASP-3-dependent fluorogenic tripeptide (BOC-V-P-R-AMC) cleavage [2]: 30.1 nM
IC50, factor Bb deposition on zymosan in 10% CFD-depleted human serum with pro-CFD (flow cytometry) [3]: 0.311 nM
EC50 [4]: 0.059 nM
binding result [5]: no binding (tested: about 20 nM (log10 about 1.3))
EC50 [6]: 0.035 nM
Inhibition of Factor Bb Deposition on Zymosan (IC50 nM), 10% factor D-depleted human serum with pro-factor D [7]: 0.3 nM
binding affinity [8]: ≤ 500 pM
EC50 [9]: 0.089 nM
binding result [10]: no binding (tested: about 20 nM (log10 about 1.3))

B4: 4D5 Parental Fab (Fab, V domains shown)
VH: QVQLKQSGPELVKPGASVKLSCKASGYTFTTDDINWVKQRPGQGLEWIGWIYPRDDRTKYNDKFKDKATLTVDTSSNTAYMDLHSLTSEDSAVYFCSSLEDTYWGQGTLVAVSS
VL: DIVMTQSPSSLAVSAGEKVTMTCKSSQSLLNSRTRKNYLAWYQQKPGQSPKLLIYWASTRESGVPDRFTGSGSGTDFSLTISSVQAEDLAVYYCKQSYNLYTFGGGTKLEIKR
notes: Monovalent Fab; also called 4D5 Fab
EC50 [11]: 0.107 nM
avidity [12]: < 500 pM

B5: 13B1 Parental Fab (Fab, V domains shown)
VH: QVQLKQSGAELMKPGASVKLSCKATGYTFTGKWIEWVKQRPGHGLEWIGEILPGTGSTNYNEKFKGKATFTADSSSNTAYMQLSSLTTEDSAMYYCLRSEDVWGTGTTVTVSS
VL: DIVMTQSPSSLAVSAGEKVTMSCKSSQSLLNSRTRKNYLAWYQQKPGQSPKLLIYWASTRESGVPDRFTGSGSGTDFTLTISSVQAEDLAVYYCKQSYNIPTFGGGTKLEIKR
notes: Monovalent Fab; also called M3-1 Fab; 13B1 Fab
EC50 [11]: 0.123 nM
avidity [12]: < 500 pM
EC50 [13]: ~0.214 nM
EC50 [14]: ~0.117 nM

Further lines, results first:

binding result [1]: binds
B1: MASP-3 clone D14 (antibody, human IgG1, V domains shown)
VH: AVTLDESGGGLQTPGGALSLVCKASGFTFSSYAMHWVRQAPGKGLEWVAGIYKSGAGTNYAPAVKGRATISRDNGQSTVRLQLNNLRAEDTGTYYCAKTTGSGCSSGYRAEYIDAWGHGTEVIVSS
VL: ALTQPASVSANPGETVKITCSGGGSYAGSYYYGWYQQKAPGSAPVTLIYYNNKRPSDIPSRFSGSLSGSTNTLTITGVRADDEAVYFCGSADNSGAAFGAGTTLTVL
notes: Chicken V regions from the DTLacO platform; also called mAbD14; mAb D14

binding result [1]: binds
B2: MASP-1 clone 1E10 (antibody, human IgG1, V domains shown)
VH: AVTLDESGGGLQTPGGALSLVCKASGFTFSSYDMVWVRQAPGKGLEFVAGISRNDGRYTEYGSAVKGRATISRDNGQSTVRLQLNNLRAEDTATYYCARDAGGSAYWFDAGQIDAWGHGTEVIVSS
VL: ALTQPASVSANPGETVKITCSGGGSYAGSYYYGWYQQKAPGSAPVTLIYYNNKRPSDIPSRFSGSLSGSTNTLTITGVRADDEAVYFCGSADNSGAAFGAGTTLTVL
notes: Chicken V regions from the DTLacO platform; also called mAb 1E10; mAb1E10

EC50 [11]: 0.108 nM
avidity [12]: < 500 pM
B6: 10D12 Parental Fab (Fab, V domains shown)
VH: QIQLVQSGPELKKPGETVKISCKASGYIFTSYGMSWVRQAPGKGLKWMGWINTYSGVPTYADDFKGRFAFSLETSARTPYLQINNLKNEDTATYFCARGGEAMDYWGQGTSVTVSS
VL: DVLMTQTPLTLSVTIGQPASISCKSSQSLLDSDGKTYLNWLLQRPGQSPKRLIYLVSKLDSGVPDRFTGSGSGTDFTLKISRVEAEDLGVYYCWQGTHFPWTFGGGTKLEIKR
notes: Monovalent Fab; also called 10D12 Fab
